Measured values reported in the RNAGym collection of RNA variant scans (doi:10.1073/pnas.2313332121).

B1: TPR t1 (parent)
chain: GACCAAUCUGCCCUCAGAGCUCGAGAACAUCUUCGGAUGCAGAGGAGGCAGGCUUCGGUGGCGCGAUAGCGCCAACGUCCUCAACCUCCAAUGCAUCCCACCACAUGAUGAUGCCUGAAGAGCCUUGGUUUUUUG

Variants of: B1
Test: polymerase ribozyme fitness, log enrichment relative to wild type (log ratio); higher = more active; in vitro selection for triplet polymerase activity
Summary of the method: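 One round of in vitro selection, in triplicate, was applied to PCR-built, transcribed mutant libraries of each subunit of a heterodimeric triplet polymerase ribozyme. The steps were annealing with a biotinylated primer, partner subunit and triplets, incubation frozen at −7 °C, gel excision of extended constructs, streptavidin-bead capture and RT-PCR. Fitness is the logarithm, base 2, of genotype enrichment over wild-type enrichment from inverse-variance-weighted replicate averages of Illumina-sequenced inputs and outputs, keeping genotypes with ≥10 input reads and ≥1 read per output.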

Row | Variant | polymerase ribozyme fitness (log ratio)
1 | C40U U96G C115G A118U G122U | -3.71
2 | A41U C86G A95U | -3.96
3 | C40U C80U C86U A91C U112G | -3.87
4 | G42U A43U G63C U78C | -3
5 | G42U G52U U96A C124G | -1.76
6 | C40U U116A | -3.34
7 | C40U U92C | -1.86
8 | G42A C62G G69C C99A A111G C115U U129C | -6.83
9 | C40U U78C U132A | -1.65
10 | G42C C115U G120U U129G | -4.74
11 | C40G U92A | -3.01
12 | G42C G61A A121C U133G | 0.579
13 | A41U C82G | -2.37
14 | C40U G60C C82U A90G A95U C97A C123G | -7.02
15 | A41C C62A C82U | -2.04
16 | C40U A43C C64U G93C C115A | -2.31
17 | G42C G57A C64A C85A G113U | -7.14
18 | G42C U55C G60A C124G U132A | 0.349
19 | C40U C115A | -0.771
20 | A41U A43U C72G G77C G93A C124G U131A | -0.181
21 | G42U G63A G93U | -3.94

Row | Variant | polymerase ribozyme fitness (log ratio)
22 | A41U G63C A95C | -3.24
23 | A41C G52U C72G U96A | -4.71
24 | C40U G42A G63C U125G | -2.99
25 | C40U G69C U78A G110A | -5.28
26 | A41C C64U U78C U106A | -1.57
27 | A41C C70A A118G | -3.8
28 | C40U G122A U130A | -1.96
29 | A41G G57A U106C | -1.93
30 | C40U A46C C64U | -2.21
31 | A41U C72G G117C | -5.06
32 | A41C G69U C82U A105U C123A | -1.3
33 | C40G U67C C70U U116C U133C | -5.53
34 | G42C C56U U81A C124G U132A | -0.851
35 | C40U G44A G63A | -1.6
36 | A41C C62U G110A | -3.63
37 | G42U G45U C88G A90G | -1.09
38 | C40U A43U G69U | 0.0551
39 | A43C C49U G63U A66C | -5.38
40 | A41G A43G | -1.45
41 | G42A C73A C104U G128A | -3.49
42 | C40U G45C C49U G63U A83U | -5.92

Row | Variant | polymerase ribozyme fitness (log ratio)
43 | A41U G113A C114U C115A G122U | -5.49
44 | G42A A121U | 0.623
45 | C40U A83G G128A U129G | -3.53
46 | C40U C80A A84U | -4.52
47 | A41C C76A C79A U112A U125C | -2.16
48 | A41U G61U | -0.703
49 | G42U G117A | -2.9
50 | A41C A105C | -5.23
51 | A41C A105G | -3.93
52 | G42U C72U G93U A118G | -4.06
53 | A41C G63C A90C C123G G128C | -3.12
54 | A41U G42C C53A C85U | -4.01
55 | G42A G45U G57U C88U U130A | -3.68
56 | A41U A90G | -0.36
57 | A41U A66G U92A | -2.28
58 | C40U G60A | -0.683
59 | A41U U109C C114U G120U | -4.6
60 | C40U G69A C72U C124A | -1.11
61 | G42A A74U A119G | -1.81
62 | C40U G42A C114U | -1.92
63 | A41C A43U C53U U126C | -2.72

Row | Variant | polymerase ribozyme fitness (log ratio)
64 | G42C G120U | -1.69
65 | A41U U78C | -1.1
66 | G42A C114U | -2.35
67 | C40U C56G G63C | -3.69
68 | A41U A90C C124G | 0.559
69 | A41C G48U A111C | -3.12
70 | G42U G71A U92A | -3.78
71 | A41U C82U G113C | -2.61
72 | A41U A100C U106A U132C | -2.89
73 | G42A C82A U87A G93C C124G | -1.42
74 | C40U G52U C62U | -1.16
75 | G42C G110C | -6.03
76 | G42C C114A | -2.26
77 | C40U C56G C70U | -2.46
78 | G42A C62U A84C | -3.09
79 | G42C A50U C82A | -2.49
80 | G42C C56G C72A G77C A100U U132A | -3.99
81 | G42A G45U | -2.62
82 | C40U G47A A118G | -2.47
83 | G42U G77U | -1.86
84 | C40U C53U C70U C72U C97U | -1.36
